Non-standard residues stand in square brackets, D forms with d. Residues, ends and D or L forms follow the SMILES beside them. No end group written: not given here. 1Nal = N[C@@H](Cc1cccc2ccccc12)C(=O)O; β3hI = CC[C@H](C)[C@H](N)CC(=O)O; β3hF = N[C@H](CC(=O)O)Cc1ccccc1; Nle = CCCC[C@H](N)C(=O)O; Aib = CC(C)(N)C(=O)O; βAla = NCCC(=O)O
T1: human PTH-1 receptor (Homo sapiens, UniProt Q03431)
T1 construct: expressed in transfected cells; host or cells: HEK-293
T1 sequence (Q03431 27-593): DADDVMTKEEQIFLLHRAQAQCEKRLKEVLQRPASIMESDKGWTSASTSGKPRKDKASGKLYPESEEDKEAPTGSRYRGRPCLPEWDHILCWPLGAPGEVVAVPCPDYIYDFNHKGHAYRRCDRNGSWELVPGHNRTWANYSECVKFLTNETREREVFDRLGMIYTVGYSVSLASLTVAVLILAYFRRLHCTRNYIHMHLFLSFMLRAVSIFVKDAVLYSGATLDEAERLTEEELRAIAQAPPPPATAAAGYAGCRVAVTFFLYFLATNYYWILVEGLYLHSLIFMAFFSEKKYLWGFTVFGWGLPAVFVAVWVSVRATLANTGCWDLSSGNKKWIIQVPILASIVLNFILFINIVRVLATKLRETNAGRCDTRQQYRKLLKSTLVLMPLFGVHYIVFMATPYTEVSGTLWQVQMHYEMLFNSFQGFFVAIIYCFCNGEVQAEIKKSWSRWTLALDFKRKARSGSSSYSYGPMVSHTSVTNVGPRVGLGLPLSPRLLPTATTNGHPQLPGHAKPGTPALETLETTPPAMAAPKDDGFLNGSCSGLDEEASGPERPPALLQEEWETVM

B1: [Nle^8, β-hIle^18, 1-Nal^23] hPTH (1-34)-OH (peptide)
peptide: SVSEIQL[Nle]HNLGKHLNS[β3hI]ERVE[1Nal]LRKKLQDVHNF-OH
modifications: N-terminus assumed
SMILES: CCCC[C@H](NC(=O)[C@H](CC(C)C)NC(=O)[C@H](CCC(N)=O)NC(=O)[C@@H](NC(=O)[C@H](CCC(=O)O)NC(=O)[C@H](CO)NC(=O)[C@@H](NC(=O)[C@@H](N)CO)C(C)C)[C@@H](C)CC)C(=O)N[C@@H](Cc1c[nH]cn1)C(=O)N[C@@H](CC(N)=O)C(=O)N[C@@H](CC(C)C)C(=O)NCC(=O)N[C@@H](CCCCN)C(=O)N[C@@H](Cc1c[nH]cn1)C(=O)N[C@@H](CC(C)C)C(=O)N[C@@H](CC(N)=O)C(=O)N[C@@H](CO)C(=O)N[C@H](CC(=O)N[C@@H](CCC(=O)O)C(=O)N[C@@H](CCCNC(=N)N)C(=O)N[C@H](C(=O)N[C@@H](CCC(=O)O)C(=O)N[C@@H](Cc1cccc2ccccc12)C(=O)N[C@@H](CC(C)C)C(=O)N[C@@H](CCCNC(=N)N)C(=O)N[C@@H](CCCCN)C(=O)N[C@@H](CCCCN)C(=O)N[C@@H](CC(C)C)C(=O)N[C@@H](CCC(N)=O)C(=O)N[C@@H](CC(=O)O)C(=O)N[C@H](C(=O)N[C@@H](Cc1c[nH]cn1)C(=O)N[C@@H](CC(N)=O)C(=O)N[C@@H](Cc1ccccc1)C(=O)O)C(C)C)C(C)C)[C@@H](C)CC
B2: [Nle^8,18, β-Ala^19, 1-Nal^23, Leu^27] hPTH-(1-34)-NH2 (peptide)
peptide: SVSEIQL[Nle]HNLGKHLNS[Nle][βAla]RVE[1Nal]LRKLLQDVHNF-NH2
modifications: N-terminus assumed
SMILES: CCCC[C@H](NC(=O)[C@H](CO)NC(=O)[C@H](CC(N)=O)NC(=O)[C@H](CC(C)C)NC(=O)[C@H](Cc1c[nH]cn1)NC(=O)[C@H](CCCCN)NC(=O)CNC(=O)[C@H](CC(C)C)NC(=O)[C@H](CC(N)=O)NC(=O)[C@H](Cc1c[nH]cn1)NC(=O)[C@H](CCCC)NC(=O)[C@H](CC(C)C)NC(=O)[C@H](CCC(N)=O)NC(=O)[C@@H](NC(=O)[C@H](CCC(=O)O)NC(=O)[C@H](CO)NC(=O)[C@@H](NC(=O)[C@@H](N)CO)C(C)C)[C@@H](C)CC)C(=O)NCCC(=O)N[C@@H](CCCNC(=N)N)C(=O)N[C@H](C(=O)N[C@@H](CCC(=O)O)C(=O)N[C@@H](Cc1cccc2ccccc12)C(=O)N[C@@H](CC(C)C)C(=O)N[C@@H](CCCNC(=N)N)C(=O)N[C@@H](CCCCN)C(=O)N[C@@H](CC(C)C)C(=O)N[C@@H](CC(C)C)C(=O)N[C@@H](CCC(N)=O)C(=O)N[C@@H](CC(=O)O)C(=O)N[C@H](C(=O)N[C@@H](Cc1c[nH]cn1)C(=O)N[C@@H](CC(N)=O)C(=O)N[C@@H](Cc1ccccc1)C(N)=O)C(C)C)C(C)C
B3: [Nle^8,18, β-Ala^19, 1-Nal^23] hPTH (1-34)-NH2 (peptide)
peptide: SVSEIQL[Nle]HNLGKHLNS[Nle][βAla]RVE[1Nal]LRKKLQDVHNF-NH2
modifications: N-terminus assumed
SMILES: CCCC[C@H](NC(=O)[C@H](CO)NC(=O)[C@H](CC(N)=O)NC(=O)[C@H](CC(C)C)NC(=O)[C@H](Cc1c[nH]cn1)NC(=O)[C@H](CCCCN)NC(=O)CNC(=O)[C@H](CC(C)C)NC(=O)[C@H](CC(N)=O)NC(=O)[C@H](Cc1c[nH]cn1)NC(=O)[C@H](CCCC)NC(=O)[C@H](CC(C)C)NC(=O)[C@H](CCC(N)=O)NC(=O)[C@@H](NC(=O)[C@H](CCC(=O)O)NC(=O)[C@H](CO)NC(=O)[C@@H](NC(=O)[C@@H](N)CO)C(C)C)[C@@H](C)CC)C(=O)NCCC(=O)N[C@@H](CCCNC(=N)N)C(=O)N[C@H](C(=O)N[C@@H](CCC(=O)O)C(=O)N[C@@H](Cc1cccc2ccccc12)C(=O)N[C@@H](CC(C)C)C(=O)N[C@@H](CCCNC(=N)N)C(=O)N[C@@H](CCCCN)C(=O)N[C@@H](CCCCN)C(=O)N[C@@H](CC(C)C)C(=O)N[C@@H](CCC(N)=O)C(=O)N[C@@H](CC(=O)O)C(=O)N[C@H](C(=O)N[C@@H](Cc1c[nH]cn1)C(=O)N[C@@H](CC(N)=O)C(=O)N[C@@H](Cc1ccccc1)C(N)=O)C(C)C)C(C)C

Assays:
[1] = target: T1, human PTH-1 receptor; assay: Reporter gene assay (CRE-luciferase) for agonist activity in transiently transfected HEK-293 cells; assay type: cell-based; settings: for hPTHR-2/hPTHR-1: Table 3, ratio of EC50 values, selectivity for hPTH-1 receptor over hPTH-2 receptor
How it was run: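 HEK-293 cells transiently transfected with SV40-driven human PTH-1 receptor and CRE-luciferase reporter, exposed to serial compound dilutions for 4-5 h, then lysed for luciferase readout; efficacy and EC50 by non-linear regression, PTH (1-34) as internal control, n≥3. Selectivity measured in analogous human PTH-2 receptor luciferase reporter assays.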

[2] = target: human parathyroid hormone receptor 1 (human, UniProt Q03431); assay: cell-based or functional assay
[3] = target: human parathyroid hormone receptor 2 (human, UniProt P49190); assay: cell-based or functional assay

Molecule | EC50 [1] [nM] | hPTHR-2/hPTHR-1 [1] | hPTHR-1 EC50 (nM), CRE-luciferase reporter gene assay [2] [nM] | hPTHR-2 EC50 (nM), luciferase reporter gene assay [3] [nM]
CCCC[C@H](NC(=O)[C@H](CC(C)C)NC(=O)[C@H](CCC(N)=O)NC(=O)[C@@H](NC(=O)[C@H](CCC(=O)O)NC(=O)[C@H](CO)NC(=O)[C@@H](NC(=O)[C@@H](N)CO)C(C)C)[C@@H](C)CC)C(=O)N[C@@H](Cc1c[nH]cn1)C(=O)N[C@@H](CC(N)=O)C(=O)N[C@@H](CC(C)C)C(=O)NCC(=O)N[C@@H](CCCCN)C(=O)N[C@@H](Cc1c[nH]cn1)C(=O)N[C@@H](CC(C)C)C(=O)N[C@@H](CC(N)=O)C(=O)N[C@@H](CO)C(=O)N[C@H](CC(=O)N[C@@H](CCC(=O)O)C(=O)N[C@@H](CCCNC(=N)N)C(=O)N[C@H](C(=O)N[C@@H](CCC(=O)O)C(=O)N[C@@H](Cc1cccc2ccccc12)C(=O)N[C@@H](CC(C)C)C(=O)N[C@@H](CCCNC(=N)N)C(=O)N[C@@H](CCCCN)C(=O)N[C@@H](CC(C)C)C(=O)N[C@@H](CC(C)C)C(=O)N[C@@H](CCC(N)=O)C(=O)N[C@@H](CC(=O)O)C(=O)N[C@H](C(=O)O)C(C)C)C(C)C)[C@@H](C)CC [SEQ ID NO: 10, [Nle^8, β-hIle^18,1-Nal^23, Leu^27] hPTH (1-31)-OH] (H-SVSEIQL[Nle]HNLGKHLNS[β3hI]ERVE[1Nal]LRKLLQDV-OH) | 0.09 | 811 | – | –
CCCC[C@H](NC(=O)[C@H](CC(C)C)NC(=O)[C@H](CCC(N)=O)NC(=O)[C@@H](NC(=O)[C@H](CCC(=O)O)NC(=O)[C@H](CO)NC(=O)[C@@H](NC(=O)[C@@H](N)CO)C(C)C)[C@@H](C)CC)C(=O)N[C@@H](Cc1c[nH]cn1)C(=O)N[C@@H](CC(N)=O)C(=O)N[C@@H](CC(C)C)C(=O)NCC(=O)N[C@@H](CCCCN)C(=O)N[C@@H](Cc1c[nH]cn1)C(=O)N[C@@H](CC(C)C)C(=O)N[C@@H](CC(N)=O)C(=O)N[C@@H](CO)C(=O)N[C@H](CC(=O)N[C@@H](CCC(=O)O)C(=O)N[C@@H](CCCNC(=N)N)C(=O)N[C@H](C(=O)N[C@@H](CCC(=O)O)C(=O)N[C@@H](Cc1cccc2ccccc12)C(=O)N[C@@H](CC(C)C)C(=O)N[C@@H](CCCNC(=N)N)C(=O)N[C@@H](CCCCN)C(=O)N[C@@H](CC(C)C)C(=O)N[C@@H](CC(C)C)C(=O)N[C@@H](CCC(N)=O)C(=O)N[C@@H](CC(=O)O)C(=O)N[C@H](C(=O)N[C@@H](Cc1c[nH]cn1)C(=O)N[C@@H](CC(N)=O)C(=O)N[C@@H](Cc1ccccc1)C(N)=O)C(C)C)C(C)C)Cc1ccccc1 [SEQ ID NO: 46, [Nle^8, β-hPhe^18,1-Nal^23, Leu^27] hPTH (1-34)-NH2] (H-SVSEIQL[Nle]HNLGKHLNS[β3hF]ERVE[1Nal]LRKLLQDVHNF-NH2) | 0.11 | 94 | – | –
SVSEIQL[Nle]HNLGKHLNS[β3hI]ERVE[1Nal]LRKLLQDVHNF-OH [[Nle^8, β-hIle^18, 1-Nal^23, Leu^27] hPTH (1-34)-OH] | – | – | 0.14 | 23
[Aib]VSEIQL[Nle]HSLGKHLK[βAla][Nle]ERVE[1Nal]LRKLLQRVHEE-NH2 | – | – | 0.03 | 7
B1 | – | – | 0.21 | 26
[Aib]VSEIQL[Nle]HNLGKHLNS[β3hI]ERVE[1Nal]LRKLLQDV-NH2 [[Aib^1, Nle^8, β-hIle^18, 1-Nal^23, Leu^27] hPTH (1-31)-NH2] | – | – | 0.05 | 18
SVSEIQL[Nle]HNLGKHLNS[β3hI]ERVE[1Nal]LRKLLQDV-NH2 [[Nle^8, β-hIle^18, 1-Nal^23, Leu^27] hPTH-(1-31)-NH2] | – | – | 0.09 | 32
[Aib]VSEIQL[Nle]HELGKHLKS[β3hI]ERVE[1Nal]LRKLLQEVHEK-NH2 [[Aib^1, Nle^8, Glu^10, Lys^16, β-hIle^18, 1-Nal^23, Leu^27, Glu^30, Glu^33, Lys^34] hPTH(1-34)-NH2] | – | – | 0.04 | 1
B2 | – | – | 0.26 | 18
SVSEIQL[Nle]HNLGKHLNS[β3hI]ERVE[1Nal]LRKLLQDV-OH [[Nle^8, β-hIle^18, 1-Nal^23, Leu^27] hPTH (1-31)-OH] | – | – | 0.09 | 76
B3 | – | – | 0.21 | 11
